# Experimental data from the RNAGym collection of RNA variant scans (doi:10.7554/elife.90254).
# B1: OR4K15 (parent)
# chain: GUUAACGGUCAUAGGCCAUGGAAACUAGGAGCACCAUUUCGCUGCCAGUGAAGAAAUGAACAAAGAAAAUCUGGGCCAGGCAGGCAUCAAAAGAAAUAGUCUUGCGCUCAACCAGAAAGUCUGUAAUCAUUUUAAGGGUA
# Variants of: B1
# Assay: self-cleavage, relative activity (ratio to wild type); higher = more cleavage; in vitro, sequencing; the parent is a self-cleaving ribozyme
row,Variant,self-cleavage
1,G7U A86G,1.64
2,C6U C46U,1.03
3,U9C U72A,0.43
4,G7A U132C,1.2
5,C6A A95G,0.79
6,G7U A18U,0.43
7,U9C G99U,0.63
8,U9C A140G,1.33
9,C6U U57A,0.77
10,G7U U19C,1.79
11,G8A A92G,1.56
12,A5U A116U,0.35
13,U9A G80U,0.2
14,U9C A135G,1.5
15,U9C A135U,0.57
16,U9A G41A,1.34
17,U9A A91G,0.37
18,U9C A78U,0.56
19,U9C A78C,0.38
20,U9C C34U,1.01
21,G7A U124C,1.03
22,U9A A67U,0.67
23,U9A A64G,1.1
24,G7A A140U,1.62

row,Variant,self-cleavage
1,A5U A140G,1.09
2,A5U U38C,1.27
3,G8A C35U,0.52
4,U9C U131C,1.7
5,U9C A98U,1.32
6,G7A A90G,1.26
7,C6A A68G,1.14
8,A5U A67U,0.99
9,A5U A67G,1.6
10,C6A U127C,0.49
11,C6U A89G,1.13
12,U9C A51G,1.27
13,G7A A78G,0.19
14,C6U U19G,0.77
15,U9C A86G,1.18
16,C6U A27G,2.16
17,G7A U122C,0.84
18,G8C U43C,2.42
19,G8A U102C,2.44
20,U9C A82G,0.58
21,U9C A82U,0.35
22,A5U U70A,1.23
23,U9C A24G,1.33
24,C6U A94G,1.68

row,Variant,self-cleavage
1,A5U U100G,1.03
2,U9C A129G,1.37
3,U9C A129C,0.68
4,U9C A129U,0.98
5,U9A U37C,1.63
6,G7A A117G,0.51
7,U9A G58U,0.65
8,G7A C40U,1.81
9,C6A U122C,0.29
10,U9A A90G,1.23
11,U9C A18C,0.9
12,U9C A18U,1.36
13,G8U,1.49
14,G8C,1.16
15,G8A,1.61
16,G8A A55G,2.14
17,A5U A95U,1.76
18,U9C A13U,1.22
19,C6A U57C,0.36
20,U9C C112A,0.03
21,G7U A116U,0.38
22,U9A U122A,1.22
23,U9A U122C,0.88
24,C6U C77U,0.34

row,Variant,self-cleavage
1,C6U A134G,1.38
2,C6U A11U,1.34
3,G8A A96G,1.97
4,G7U A67G,1.28
5,C6U U26A,0.53
6,G7U A114G,0.16
7,A5U G21A,1.25
8,C6A A89C,1.1
9,C6U A56G,0.64
10,C6U G79U,0.11
11,U9C A92G,0.82
12,U9C A92C,2.26
13,U9C U100C,2.18
14,U9C C46U,1.03
15,U9C C46A,1.74
16,G7A A68G,1.92
17,A5U U12A,0.69
18,U9C A66G,0.9
19,G7A U131C,1.36
20,G7A U131G,1.7
21,U9C U103C,1.13
22,U9C U103A,1.9
23,G7A A110C,0.23
24,G7A A110G,0.11

row,Variant,self-cleavage
1,U9A A55G,0.81
2,U9C C76U,0.15
3,U9C C76A,0.07
4,U9C A111U,0.09
5,U9C A111G,0.02
6,C6G U132C,0.79
7,G7A A114U,0.06
8,U9C U57A,1.6
9,U9A U43A,0.83
10,U9A A114G,0.33
11,U9A A114U,0.07
12,A5U U127C,1.03
13,U9C A59G,1.32
14,C6U A110G,0.19
15,C6U A52G,0.59
16,U9C G29U,2.61
17,G8A C32U,2.12
18,A5U A68G,0.82
19,U9A A27G,0.47
20,A5U U130C,0.85
21,G7U A135U,2.23
22,G7A A64G,1.18
23,C6U G20U,1.06
24,A5U A110G,0.29

row,Variant,self-cleavage
1,G8A U103C,1.61
2,G8A U103G,0.03
3,G7U C77U,1.9
4,U9A A18G,1.79
5,A5U U72A,0.62
6,U9C G83A,2.33
7,G7A U19C,1.14
8,G8A A95G,1.52
9,U9C A62U,2.18
10,U9A A23U,1.59
11,A5U A126U,0
12,G7U U57C,1.41
13,G7A A92G,1.8
14,G7A A92U,1.72
15,C6U A116G,0.34
16,U9C A63U,1.83
17,U9C G15A,1.47
18,G7U A60U,2.4
19,G8A U120C,1.57
20,G8A C77U,1.72
21,G7U U12C,0.79
22,G7A A66G,1.18
23,U9C U43C,1.48
24,G8U A23G,1.93

row,Variant,self-cleavage
1,U9C A90U,2.21
2,U9C G80A,0.34
3,G7U U49C,1.71
4,U9A A110G,0.22
5,G7U U131C,1.14
6,A5U A118G,0.83
7,U9C A114G,0.64
8,A5U G15A,1.04
9,C6A,1.28
10,C6G,1.83
11,C6U,0.75
12,G8A U57A,2.18
13,G8A A117G,2.27
14,G7A U70A,1.94
15,U9A A89U,0.66
16,G7A A52G,1.25
17,G7A A89G,0.61
18,C6A C10U,0.25
19,G7A A86G,0.94
20,U9A U87C,0.85
21,C6U A13G,1.29
22,U9C U120G,1.39
23,U9C A89G,1.45
24,U9C A89U,1.25

row,Variant,self-cleavage
1,U9C G84A,1.54
2,A5U A69G,0.36
3,U9A,1.01
4,U9C,1.61
5,C6U A69G,1.05
6,U9C A36G,0.96
7,G7A U108C,0
8,A5U U97C,0
9,G7U U39C,0.54
10,G7U A92G,1.66
11,U9C C88U,1.34
12,A5U U43G,1.19
13,A5U U43C,1.2
14,U9A A30G,0.98
15,C6U G44A,1.34
16,U9A A69G,1.27
17,G7U U103C,0.65
18,U9A U108A,0
19,C6U A64G,1.46
20,U9A U130C,1.33
21,C6U U38C,1.48
22,U9C U122C,1.15
23,G7U A111G,0
24,G8A U70C,1.22

row,Variant,self-cleavage
1,U9C A47C,1.02
2,U9C A47U,1.1
3,U9C A47G,1.08
4,C6A A66G,1.23
5,G7A A69U,1.79
6,A5U U49A,1.79
7,A5U U103C,0.83
8,G8A A60G,1.53
9,G7U A56G,1.29
10,U9C G136A,2.13
11,A5U U102C,1.69
12,G7U A90G,2.21
13,G8U A94G,1.98
14,U9A U139A,1.31
15,G8A A22G,1.39
16,A5U G138A,1.71
17,G7A U72C,0.27
18,U9A A24G,1.29
19,U9A A24C,0.99
20,U9C A60U,1.9
21,U9C A60G,1.41
22,U9C A110G,0.15
23,U9C U37A,2.35
24,U9A U97A,1.03

row,Variant,self-cleavage
1,U9C A55U,1.16
2,C6U U43C,1.58
3,C6U U120C,0.33
4,U9C A68G,1.51
5,U9C A54G,1.53
6,U9C U108G,0.06
7,U9C U108C,0.02
8,U9A A134G,1.66
9,U9A C42A,0.53
10,G8A U9C,1.16
11,G7A G137U,2.13
12,G7U A47G,1.17
13,C6U A47U,0.51
14,U9A A111U,0.19
15,G7A A18G,0.64
16,G7A A18C,1.98
17,A5U U37C,0.72
18,A5U U37G,1
19,G8C U122C,1.12
20,U9A A22G,1.7
21,C6U U102A,1.22
22,U9A A125G,0.76
23,U9C A23U,1.07
24,U9C A23C,1.27

row,Variant,self-cleavage
1,G7U A59G,0.98
2,G7A G74U,0.2
3,U9C C40A,1.25
4,C6A A110G,0.08
5,U9C G58A,1.29
6,A5U A78G,0.44
7,C6U A66G,1.33
8,G7U A117G,1.7
9,U9A U103C,0.49
10,A5U A86G,0.92
11,U9C U38G,2.11
12,G7A U12C,1.33
13,U9A A36U,1.2
14,C6U A125C,1
15,G8A U133G,2.78
16,U9C U130C,1.05
17,G7U G104A,0.05
18,U9A A92G,1.08
19,U9C A30G,1.13
20,G7A A59G,1.46
21,G8A U49C,2.37
22,U9C A116G,0.49
23,U9C A116U,0.55
24,A5U U108C,0.04

row,Variant,self-cleavage
1,U9A U49A,1
2,A5U A96G,1.12
3,G7A G44U,1.28
4,G7A U87C,1.25
5,U9A A96G,1.16
6,G7A A82U,0.14
7,U9C A22G,1.21
8,U9A A52C,2.25
9,U9A A118G,0.9
10,G7A A36U,1.54
11,U9A A11G,0.92
12,C6A U49C,0.74
13,U9A U131C,0.4
14,U9C U132C,1.45
15,U9A C77A,0.08
16,C6U A117U,1.1
17,A5U U132C,1.4
18,C6U U100C,1.18
19,G7A A111G,0.03
20,U9A A59U,1.81
21,U9A A59G,1.12
22,U9A A33G,0.9
23,G7A U37C,2.58
24,G7U A95G,1.43

row,Variant,self-cleavage
1,C6A A111G,0.08
2,U9C A96G,1.35
3,C6G U100C,0.97
4,U9A C88U,0.82
5,U9C C45U,1.07
6,U9C A52G,1.63
7,U9C A52U,1.23
8,A5U A91U,1.64
9,A5U A91G,0.86
10,G7A A116U,0.33
11,G7U U108A,0.06
12,G7U U108C,0.02
13,A5U A82U,0.38
14,U9C A11U,1.67
15,G7A A27G,1.3
16,U9A A98G,0.34
17,G7A A62C,1.41
18,G8A U19A,1.92
19,G8C A64G,2.95
20,U9C U19G,2.03
21,G8A A18G,0.78
22,C6U A135G,2.17
23,G7C U72A,0.38
24,G7A G79A,0.11

row,Variant,self-cleavage
1,G7A U139C,1.82
2,G7A A22G,1.42
3,G7A A22U,1.51
4,U9C C77U,1.18
5,U9A A140U,1.31
6,C6U U132A,0.56
7,C6U U132C,0.63
8,U9C G75A,0.08
9,A5U U122A,1.48
10,G7U U70A,1.27
11,C6U G74A,0.46
12,A5U A89G,1.15
13,C6U G80A,0.22
14,U9A G15C,0.57
15,G7C A47U,1.4
16,U9C A91U,1.49
17,G8A A129U,1.63
18,U9C U127C,1.44
19,U9C U127A,2.67
20,G7A A56G,1.78
21,C6A A64G,1.24
22,C6A A117G,0.6
